B1: 060616-K04 (protein)
chain: MALPVTALLLPLALLLHAARPDIQMTQSPSSLSASVGDRVTITCKASQDVGIAVAWYQQKPGKVPKLLIYWASTRHTGVPDRFSGSGSGTDFTLTISSLQPEDVATYYCQQYSSYPYTFGQGTKVEIKLEGKPIPNPLLGLDSTGSGEDLKNVFPPEVAVFEPSKAEIAHTQKATLVCLATGFYPDHVELSWWVNGKEVHSGVCTDPQPLKEQPALNDSRYCLSSRLRVSATFWQNPRNHFRCQVQFYGLSENDEWTQDRAKPVTQIVSAEAWGRADCGITSASYHQGVLSATILYEILLGKATLYAVLVSALVLMAMVKRKDSRGRAKRSGSGATNFSLLKQAGDVEENPGPTSMDWIWRILFLVGAATGAHSFEEVQLVESGGGLVQPGGSLRLSCAASGFDFSRYWMSWVRQAPGKGLEWIGEINPDSSTINYAPSLKDKFIISRDNAKNSLYLQMNSLRAEDTAVYYCARPDGNYWYFDVWGQGTLVTVSSTREQKLISEEDGSGIQNPDPAVYQLRDSKSSDKSVCLFTDFDSQTNVSQSKDSDVYITDKCVLDMRSMDFKSNSAVAWSNKSDFACANAFNNSIIPEDTFFPSSDVPCDVKLVEKSFETDTNLNFQNLSVIGFRILLLKVAGFNLLMTLRLWSSRAKRSGSGVKQTLNFDLLKLAGDVESNPGPSRGHMTEYKPTVRLATRDDVPRAVRTLAAAFADYPATRHTVDPDRHIERVTELQELFLTRVGLDIGKVWVADDGAAVAVWTTPESVEAGAVFAEIGPRMAELSGSRLAAQQQMEGLLAPHRPKEPAWFLATVGVSPDHQGKGLGSAVVLPGVEAAERAGVPAFLETSAPRNLPFYERLGFTVTADVEVPEGPRTWCMTRKPGA
modifications: Synthetic Immune Receptor (SIR)
B2: 091216-L03 (protein)
chain: MALPVTALLLPLALLLHAARPLEGKPIPNPLLGLDSTGSGEDLKNVFPPEVAVFEPSKAEIAHTQKATLVCLATGFYPDHVELSWWVNGKEVHSGVCTDPQPLKEQPALNDSRYCLSSRLRVSATFWQNPRNHFRCQVQFYGLSENDEWTQDRAKPVTQIVSAEAWGRADCGITSASYHQGVLSATILYEILLGKATLYAVLVSALVLMAMVKRKDSRGRAKRSGSGATNFSLLKQAGDVEENPGPTSTMALPVTALLLPLALLLHAARPDIQMTQSPSSLSASVGDRVTITCKASQDVGIAVAWYQQKPGKVPKLLIYWASTRHTGVPDRFSGSGSGTDFTLTISSLQPEDVATYYCQQYSSYPYTFGQGTKVEIKGGGGSGGGGSGGGGSEVQLVESGGGLVQPGGSLRLSCAASGFDFSRYWMSWVRQAPGKGLEWIGEINPDSSTINYAPSLKDKFIISRDNAKNSLYLQMNSLRAEDTAVYYCARPDGNYWYFDVWGQGTLVTVSSTREQKLISEEDGSGIQNPDPAVYQLRDSKSSDKSVCLFTDFDSQTNVSQSKDSDVYITDKCVLDMRSMDFKSNSAVAWSNKSDFACANAFNNSIIPEDTFFPSSDVPCDVKLVEKSFETDTNLNFQNLSVIGFRILLLKVAGFNLLMTLRLWSSRAKRSGSGVKQTLNFDLLKLAGDVESNPGPSRGHMTEYKPTVRLATRDDVPRAVRTLAAAFADYPATRHTVDPDRHIERVTELQELFLTRVGLDIGKVWVADDGAAVAVWTTPESVEAGAVFAEIGPRMAELSGSRLAAQQQMEGLLAPHRPKEPAWFLATVGVSPDHQGKGLGSAVVLPGVEAAERAGVPAFLETSAPRNLPFYERLGFTVTADVEVPEGPRTWCMTRKPGA
modifications: Synthetic Immune Receptor (SIR)
B3: 090116-L01 (protein)
chain: MALPVTALLLPLALLLHAARPLEGKPIPNPLLGLDSTGSGEDLKNVFPPEVAVFEPSKAEIAHTQKATLVCLATGFYPDHVELSWWVNGKEVHSGVCTDPQPLKEQPALNDSRYCLSSRLRVSATFWQNPRNHFRCQVQFYGLSENDEWTQDRAKPVTQIVSAEAWGRADCGITSASYHQGVLSATILYEILLGKATLYAVLVSALVLMAMVKRKDSRGRAKRSGSGATNFSLLKQAGDVEENPGPTSMALPVTALLLPLALLLHAARPDIVMTQSQKSMSTSVGDRVSITCKASQDVITGVAWYQQKPGQSPKLLIYSASYRYTGVPDRFTGSGSGTDFTFTISNVQAEDLAVYYCQQHYSTPLTFGAGTKLELKGGGGSGGGGSGGGGSQVQLQQPGAELVRPGASVKLSCKASGYSFTTYWMNWVKQRPGQGLEWIGMIHPSDSETRLNQKFKDKATLTVDKSSSTAYMQLSSPTSEDSAVYYCARSTMIATRAMDYWGQGTSVTVSSTREQKLISEEDGSGIQNPDPAVYQLRDSKSSDKSVCLFTDFDSQTNVSQSKDSDVYITDKCVLDMRSMDFKSNSAVAWSNKSDFACANAFNNSIIPEDTFFPSSDVPCDVKLVEKSFETDTNLNFQNLSVIGFRILLLKVAGFNLLMTLRLWSSRAKRSGSGVKQTLNFDLLKLAGDVESNPGPSRGHMTEYKPTVRLATRDDVPRAVRTLAAAFADYPATRHTVDPDRHIERVTELQELFLTRVGLDIGKVWVADDGAAVAVWTTPESVEAGAVFAEIGPRMAELSGSRLAAQQQMEGLLAPHRPKEPAWFLATVGVSPDHQGKGLGSAVVLPGVEAAERAGVPAFLETSAPRNLPFYERLGFTVTADVEVPEGPRTWCMTRKPGA
modifications: Synthetic Immune Receptor (SIR)
B4: 041416-P02 (protein)
chain: MALPVTALLLPLALLLHAARPDIVMTQSQKSMSTSVGDRVSITCKASQDVITGVAWYQQKPGQSPKLLIYSASYRYTGVPDRFTGSGSGTDFTFTISNVQAEDLAVYYCQQHYSTPLTFGAGTKLELKLEGKPIPNPLLGLDSTGSGEDLKNVFPPEVAVFEPSKAEIAHTQKATLVCLATGFYPDHVELSWWVNGKEVHSGVCTDPQPLKEQPALNDSRYCLSSRLRVSATFWQNPRNHFRCQVQFYGLSENDEWTQDRAKPVTQIVSAEAWGRADCGITSASYHQGVLSATILYEILLGKATLYAVLVSALVLMAMVKRKDSRGRAKRSGSGATNFSLLKQAGDVEENPGPTSMDWIWRILFLVGAATGAHSFEQVQLQQPGAELVRPGASVKLSCKASGYSFTTYWMNWVKQRPGQGLEWIGMIHPSDSETRLNQKFKDKATLTVDKSSSTAYMQLSSPTSEDSAVYYCARSTMIATRAMDYWGQGTSVTVSSTREQKLISEEDGSGTPFPSLAPPIMLLVDGKQQMVVVCLVLDVAPPGLDSPIWFSAGNGSALDAFTYGPSPATDGTWTNLAHLSLPSEELASWEPLVCHTGPGAEGHSRSTQPMHLSGEASTARTCPQEPLRGTPGGALWLGVLRLLLFKLLLFDLLLTCSCLCDPAGPLPSPATTTRLRALGSHRLHPATETGGREATSSPRPQPRDRRWGDTPPGRKPGSPVRAKRSGSGVKQTLNFDLLKLAGDVESNPGPSRGHMTEYKPTVRLATRDDVPRAVRTLAAAFADYPATRHTVDPDRHIERVTELQELFLTRVGLDIGKVWVADDGAAVAVWTTPESVEAGAVFAEIGPRMAELSGSRLAAQQQMEGLLAPHRPKEPAWFLATVGVSPDHQGKGLGSAVVLPGVEAAERAGVPAFLETSAPRNLPFYERLGFTVTADVEVPEGPRTWCMTRKPGA
modifications: Polynucleotide encoding a Synthetic Immune Receptor (SIR)

Tested on: target antigen-expressing cell line
Assay: Jurkat NFAT-GFP assay, coculture with target cell lines expressing the respective target antigen (summary Table 10A)
Type: cell-based, human
Parameters: key: The signs +/−, +, 2+ etc. after the name of the cell lines indicate the relative degree of positivity on the Jurkat-NFAT-GFP assay as measured by the % GFP positive cells; +: relative degree of positivity on the Jurkat-NFAT-GFP assay as measured by the % GFP positive cells; 2+: relative degree of positivity on the Jurkat-NFAT-GFP assay as measured by the % GFP positive cells
Summary of the method: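 Stable SIR expression in Jurkat-NFAT-GFP cells by lentiviral transfer and puromycin selection; coculture with target cells (E:T approximately 1:2) for 4 to 18 hours; flow cytometric measurement of NFAT-driven GFP; scoring as positive when % GFP-positive cells exceeds that of parental reporter cells.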

Molecule | NFAT-GFP ASSAY Positive Cell lines (coculture with L363 cells) | NFAT-GFP ASSAY Positive Cell lines (coculture with U266 cells)
B1 | L363 (2+) | –
B2 | U266 (+), L363 (+) | U266 (+), L363 (+)
B3 | (+) | U266 (+/−), L363
B4 | (+/−) | U266 (+/−), L363

Source: US12269859B2, “Synthetic immune receptors and methods of use thereof” (Angeles Therapeutics, Inc., priority 2016, dated 2025)
